Columns and labels:
Test in all cases: cell-based or functional assay
[1] = biological target: HIV-1 Env of isolate MGRM-G-024 (HIV-1)
[2] = biological target: HIV-1 Env of isolate MGRM-D-003 (pseudovirus) (HIV-1)
[3] = biological target: HIV-1 Env of isolate MGRM-D-020 (pseudovirus) (HIV-1)
[4] = biological target: HIV-1 Env of isolate MGRM-D-022 (pseudovirus) (HIV-1)
[5] = biological target: HIV-1 Env of isolate MGRM-F1-006 (pseudovirus) (HIV-1)
[6] = biological target: HIV-1 Env of isolate MGRM-F1-016 (HIV-1)
[7] = biological target: HIV-1 Env of isolate VLGCB3 (subtype B pseudovirus) (HIV-1)
[8] = biological target: HIV-1 NL43 Env (pseudovirus, clade B) (HIV-1)
[9] = biological target: aMLV envelope protein on pseudovirus (negative control)
[10] = biological target: HIV-1 Env of isolate 93TH305 (HIV-1)
[11] = biological target: HIV-1 Env of isolate 98CN006 (HIV-1)
[12] = biological target: HIV-1 Env of isolate MG RM-D-018 (HIV-1)
[13] = biological target: HIV-1 Env of isolate MG RM-D-019 (HIV-1)
[14] = biological target: HIV-1 Env of isolate MG RM-D-021 (HIV-1)

Chain of 4995_E20 (PGT-142) (antibody) (VH): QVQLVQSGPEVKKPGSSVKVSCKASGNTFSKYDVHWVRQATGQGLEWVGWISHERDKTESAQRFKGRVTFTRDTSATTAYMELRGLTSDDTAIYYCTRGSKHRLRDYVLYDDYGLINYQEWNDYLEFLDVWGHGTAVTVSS
Chain of 4995_E20 (PGT-142) (antibody) (VL): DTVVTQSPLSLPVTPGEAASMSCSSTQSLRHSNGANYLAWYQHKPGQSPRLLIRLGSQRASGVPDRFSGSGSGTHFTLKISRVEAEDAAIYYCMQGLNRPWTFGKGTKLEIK
Chain of 4980_N08 (PGT-143) (antibody) (VH): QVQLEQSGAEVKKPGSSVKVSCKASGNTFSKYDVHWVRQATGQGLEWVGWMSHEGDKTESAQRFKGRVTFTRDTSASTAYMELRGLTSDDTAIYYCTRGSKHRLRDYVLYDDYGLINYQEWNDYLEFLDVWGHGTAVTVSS
Chain of 4980_N08 (PGT-143) (antibody) (VL): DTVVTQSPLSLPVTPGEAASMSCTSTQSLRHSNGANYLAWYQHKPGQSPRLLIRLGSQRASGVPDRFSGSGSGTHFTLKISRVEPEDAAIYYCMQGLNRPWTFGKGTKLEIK
Chain of 4970_K22 (PGT-144) (antibody) (VH): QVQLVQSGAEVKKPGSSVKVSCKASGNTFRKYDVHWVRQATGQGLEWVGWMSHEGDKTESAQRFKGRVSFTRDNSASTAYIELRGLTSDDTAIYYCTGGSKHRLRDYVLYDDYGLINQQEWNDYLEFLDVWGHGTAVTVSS
Chain of 4970_K22 (PGT-144) (antibody) (VL): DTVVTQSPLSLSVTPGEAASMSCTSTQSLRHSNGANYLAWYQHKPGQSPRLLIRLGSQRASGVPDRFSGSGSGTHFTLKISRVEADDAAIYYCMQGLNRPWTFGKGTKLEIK
Chain of 4993_K13 (PGT-141) (antibody) (VH): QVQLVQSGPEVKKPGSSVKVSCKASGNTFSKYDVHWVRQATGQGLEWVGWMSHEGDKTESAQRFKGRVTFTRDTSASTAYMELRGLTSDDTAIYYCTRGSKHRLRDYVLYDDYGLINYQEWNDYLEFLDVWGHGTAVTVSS

| Substance | IC50 (µg/mL), pseudovirus neutralization [1] | IC50, pseudovirus neutralization [2] | IC50, pseudovirus neutralization [3] | IC50, pseudovirus neutralization [4] | IC50, pseudovirus neutralization [5] | IC50 (µg/mL), pseudovirus neutralization [6] | IC50 (µg/mL), pseudovirus neutralization [7] | further results |
| --- | --- | --- | --- | --- | --- | --- | --- | --- |
| 4970_K22 (PGT-144) (antibody) | 7.92 µg/mL | – | – | – | – | – | – | – |
| 4980_N08 (PGT-143) (antibody) | 0.048 µg/mL | – | – | – | – | – | – | – |
| 4993_K13 (PGT-141) (antibody) | 0.051 µg/mL | – | – | – | – | – | – | – |
| 4995_E20 (PGT-142) (antibody) | 0.054 µg/mL | – | – | – | – | – | – | – |
| 5123_A06 (PGT-125) (antibody) | – | 0.065 µg/mL | > 50 µg/mL | 0.04 µg/mL | 0.035 µg/mL | > 50 µg/mL | 0.015 µg/mL | IC50 neutralization [8]: > 10 µg/mL |
| 5141_B17 (PGT-126) (antibody) | – | 0.021 µg/mL | 0.023 µg/mL | > 50 µg/mL | 0.078 µg/mL | > 50 µg/mL | 0.007 µg/mL | IC50 neutralization [8]: > 10 µg/mL; IC50, pseudovirus neutralization [9]: > 10 µg/mL; IC80 (pseudovirus neutralization) [9]: > 10 µg/mL; IC90 (pseudovirus neutralization) [9]: > 10 µg/mL; IC95 (pseudovirus neutralization) [9]: > 10 µg/mL |
| 5145_B14 (PGT-127) (antibody) | – | 0.029 µg/mL | 0.015 µg/mL | > 50 µg/mL | 7.17 µg/mL | > 50 µg/mL | 0.022 µg/mL | – |
| PGV04 (antibody) | 0.033 µg/mL | – | – | – | – | – | – | IC50 (µg/mL), pseudovirus neutralization [10]: 0.255 µg/mL; IC50 [11]: 1.32 µg/mL |
| VRC01 (antibody) | 0.025 µg/mL | – | – | – | – | – | – | IC50 [12]: > 50 µg/mL; IC50 [13]: 0.119 µg/mL; IC50 [14]: 33.4 µg/mL; IC50 [6]: 0.517 µg/mL |

Reference: patent US20250320281A1
